Biological target: CXCL8 (human)

B1: P1156 (evasin from Ixodes ricinus), purified, C-terminal StrepII:His tag (natural protein)
chain: DGGADDDNELFTVQYCGMNCTKDEGGTWTGCTGKKEGCKCYHESGKNYGLCLSTEYTDFSQYGNPSDSEIEAAKPKRSDTLSH
mean IC50 (three biological replicates) of inhibition of primary human granulocyte migration induced by the EC80 dose of CXCL8: 1.8e-09 M
